The target of data set [1] is TcP37/NRBD (T. cruzi (endogenous in CL Brener epimastigotes)). The experiment in a line: co-IP; anti-P34/P37 antibody cross-linked to Protein A Dynabeads, 1 mg epimastigote whole cell extract, 4°C overnight, washed in PBS-T; pellet and supernatant blotted with anti-TcL5 peptide antibody; extracts with or without RNase A (20 U/ml, 1 hour, 37°C).
In data set [2] the test system is TcP37/NRBD (Trypanosoma cruzi CL Brener). The experiment in a line: filter binding. Conditions: 10 mM Tris pH 7.4, 1 mM EDTA, 100 mM NaCl, 0.1% NP40, 100 ug/mL BSA; room temperature, 30 min; 0.5 fmol RNA in 50 ul, 0-500 nM protein.
Data set [3] relates to TcL5 (ribosomal protein L5) (Trypanosoma cruzi CL Brener). Kind of data set: filter binding. The conditions noted are these: 10 mM Tris pH 7.4, 1 mM EDTA, 100 mM NaCl, 0.1% NP40, 100 ug/mL BSA; room temperature, 30 min; 0.5 fmol RNA in 50 ul, 0-500 nM protein.
The next data set has as its target rTcL5 (T. cruzi). The experiment in a line: co-IP; 500 ng rTcP37/NRBD and 500 ng rTcL5, with or without 500 ng in vitro transcribed Tc 5S rRNA, applied to TcL5 antibody cross-linked Dynabeads; eluate and supernatant blotted with P34/P37 antibodies.

The results in this text go back to article PMC4488245.

Take TcL5 (natural protein): the decrease of the association after RNase A treatment of the extract in data set [1] worked out at 74%.

In the case of Tc 5S rRNA, the Kd in data set [2] is 63 nM; in data set [3], 11 nM. With rTcP37/NRBD (natural protein), the increase of the association in the presence of 5S rRNA with rTcL5 (T. cruzi) stood at 62%.

The term Kd denotes the constant that tells how readily two partners part at equilibrium. Read a high Kd as lower affinity.
